Common to all, as to assay: cryo-EM structure; endogenous mouse Mediator immunopurified from CH12 nuclear extract through 3×FLAG-MED19 or 3×FLAG-MED25; eluted in 50 mM HEPES pH 7.9, 100 mM KCl, 5% glycerol, 1 mM EDTA, 0.005% NP-40; map at 4.0 Å overall, focused refinement of the MED1 and knob/hook ends (6-10 Å)
What all share (conditions): both partners purified

One experiment addresses T1, MED23 (mouse (Mus musculus; endogenous in CH12), UniProt Q80YQ2 1-1367).
T1 construct: MED23, Mus musculus, endogenous lower Tail subunit of Mediator; Model building started from the X-ray structure of human MED23 (PDB 6H02); source: endogenous, CH12 mouse B lymphoma nuclear extract; immunopurified as part of Mediator (FLAG M2 agarose, FLAG peptide elution)
T1 sequence (looked up): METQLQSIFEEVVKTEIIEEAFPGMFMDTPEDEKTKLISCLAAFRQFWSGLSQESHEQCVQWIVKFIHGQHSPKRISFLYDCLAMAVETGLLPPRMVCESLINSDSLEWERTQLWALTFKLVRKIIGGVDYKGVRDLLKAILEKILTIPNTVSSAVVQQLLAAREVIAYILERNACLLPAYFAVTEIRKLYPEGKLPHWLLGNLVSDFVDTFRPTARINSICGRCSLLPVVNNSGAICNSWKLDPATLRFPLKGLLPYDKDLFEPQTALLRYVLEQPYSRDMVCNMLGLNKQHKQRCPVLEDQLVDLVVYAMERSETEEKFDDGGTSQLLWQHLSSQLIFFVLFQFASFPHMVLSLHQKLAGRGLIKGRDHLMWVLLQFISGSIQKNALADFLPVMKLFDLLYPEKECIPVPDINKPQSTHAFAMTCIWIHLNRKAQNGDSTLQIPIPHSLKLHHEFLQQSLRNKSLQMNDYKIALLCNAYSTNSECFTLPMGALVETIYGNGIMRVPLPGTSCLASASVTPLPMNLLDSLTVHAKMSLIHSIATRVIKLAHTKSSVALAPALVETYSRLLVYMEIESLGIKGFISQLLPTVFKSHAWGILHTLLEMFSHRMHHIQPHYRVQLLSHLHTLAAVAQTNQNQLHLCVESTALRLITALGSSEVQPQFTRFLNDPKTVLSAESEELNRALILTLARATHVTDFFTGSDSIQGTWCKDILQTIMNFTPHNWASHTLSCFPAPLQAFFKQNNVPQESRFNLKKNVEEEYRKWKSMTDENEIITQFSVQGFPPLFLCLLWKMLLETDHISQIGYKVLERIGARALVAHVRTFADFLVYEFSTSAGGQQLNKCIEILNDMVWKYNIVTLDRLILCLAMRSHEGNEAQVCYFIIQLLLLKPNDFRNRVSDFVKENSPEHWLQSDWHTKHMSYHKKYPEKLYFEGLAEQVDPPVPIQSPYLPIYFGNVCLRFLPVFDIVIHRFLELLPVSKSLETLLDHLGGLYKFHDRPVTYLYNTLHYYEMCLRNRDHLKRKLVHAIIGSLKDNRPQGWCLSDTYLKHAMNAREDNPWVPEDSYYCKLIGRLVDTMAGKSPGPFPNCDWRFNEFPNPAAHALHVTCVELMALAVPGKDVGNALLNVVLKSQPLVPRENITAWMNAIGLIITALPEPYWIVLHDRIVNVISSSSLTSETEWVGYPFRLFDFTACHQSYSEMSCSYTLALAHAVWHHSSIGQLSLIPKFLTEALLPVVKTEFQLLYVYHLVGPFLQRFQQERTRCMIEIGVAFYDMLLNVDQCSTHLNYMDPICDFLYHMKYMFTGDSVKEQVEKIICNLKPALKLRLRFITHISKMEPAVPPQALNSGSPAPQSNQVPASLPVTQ

A further experiment has as its target T2, MED24 (mouse (Mus musculus; endogenous in CH12), UniProt Q99K74 1-987).
T2 construct: MED24, Mus musculus, endogenous lower Tail subunit of Mediator; source: endogenous, CH12 mouse B lymphoma nuclear extract; immunopurified as part of Mediator (FLAG M2 agarose, FLAG peptide elution)
T2 sequence (looked up): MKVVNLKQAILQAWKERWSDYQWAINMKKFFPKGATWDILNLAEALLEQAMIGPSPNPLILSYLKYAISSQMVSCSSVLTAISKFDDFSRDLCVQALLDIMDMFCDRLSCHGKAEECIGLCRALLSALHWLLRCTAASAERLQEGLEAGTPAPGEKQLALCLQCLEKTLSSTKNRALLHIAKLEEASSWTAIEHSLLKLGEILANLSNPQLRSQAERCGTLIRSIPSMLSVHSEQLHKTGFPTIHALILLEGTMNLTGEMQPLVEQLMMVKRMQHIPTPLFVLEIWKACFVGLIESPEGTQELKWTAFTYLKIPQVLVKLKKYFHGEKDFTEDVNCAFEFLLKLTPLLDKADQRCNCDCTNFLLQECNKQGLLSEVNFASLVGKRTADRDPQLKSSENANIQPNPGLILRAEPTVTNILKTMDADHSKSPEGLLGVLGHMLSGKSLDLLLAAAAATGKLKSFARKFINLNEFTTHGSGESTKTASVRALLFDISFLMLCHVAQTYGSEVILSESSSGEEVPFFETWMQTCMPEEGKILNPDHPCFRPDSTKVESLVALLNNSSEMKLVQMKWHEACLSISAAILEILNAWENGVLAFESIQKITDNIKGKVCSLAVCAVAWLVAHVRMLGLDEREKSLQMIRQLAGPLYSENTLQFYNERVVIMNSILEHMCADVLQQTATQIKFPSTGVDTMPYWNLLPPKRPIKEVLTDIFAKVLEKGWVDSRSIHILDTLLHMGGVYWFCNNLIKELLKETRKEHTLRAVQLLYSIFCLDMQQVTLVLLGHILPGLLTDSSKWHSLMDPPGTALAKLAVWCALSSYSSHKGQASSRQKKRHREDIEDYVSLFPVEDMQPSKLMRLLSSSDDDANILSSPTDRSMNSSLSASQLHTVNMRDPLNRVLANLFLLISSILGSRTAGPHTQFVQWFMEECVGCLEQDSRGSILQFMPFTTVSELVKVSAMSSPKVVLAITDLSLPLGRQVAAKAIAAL

The target in the next experiment is T3, MED27 (mouse (Mus musculus; endogenous in CH12), UniProt Q9DB40 1-311).
T3 construct: MED27, Mus musculus, endogenous upper Tail subunit of Mediator; source: endogenous, CH12 mouse B lymphoma nuclear extract; immunopurified as part of Mediator (FLAG M2 agarose, FLAG peptide elution)
T3 sequence (looked up): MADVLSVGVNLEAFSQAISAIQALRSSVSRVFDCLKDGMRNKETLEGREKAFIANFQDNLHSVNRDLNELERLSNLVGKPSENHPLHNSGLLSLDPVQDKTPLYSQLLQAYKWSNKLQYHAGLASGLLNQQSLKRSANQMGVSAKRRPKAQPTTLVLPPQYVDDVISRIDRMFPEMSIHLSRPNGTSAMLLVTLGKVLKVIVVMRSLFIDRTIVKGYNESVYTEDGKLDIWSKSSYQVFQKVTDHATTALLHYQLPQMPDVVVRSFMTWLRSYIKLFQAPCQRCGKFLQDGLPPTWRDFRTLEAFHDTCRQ

For another experiment, the target named is T4, MED17 (mouse (Mus musculus; endogenous in CH12), UniProt Q8VCD5 1-649).
T4 construct: MED17, Mus musculus, endogenous Head module scaffold subunit of Mediator; source: endogenous, CH12 mouse B lymphoma nuclear extract; immunopurified as part of Mediator (FLAG M2 agarose, FLAG peptide elution)
T4 sequence (looked up): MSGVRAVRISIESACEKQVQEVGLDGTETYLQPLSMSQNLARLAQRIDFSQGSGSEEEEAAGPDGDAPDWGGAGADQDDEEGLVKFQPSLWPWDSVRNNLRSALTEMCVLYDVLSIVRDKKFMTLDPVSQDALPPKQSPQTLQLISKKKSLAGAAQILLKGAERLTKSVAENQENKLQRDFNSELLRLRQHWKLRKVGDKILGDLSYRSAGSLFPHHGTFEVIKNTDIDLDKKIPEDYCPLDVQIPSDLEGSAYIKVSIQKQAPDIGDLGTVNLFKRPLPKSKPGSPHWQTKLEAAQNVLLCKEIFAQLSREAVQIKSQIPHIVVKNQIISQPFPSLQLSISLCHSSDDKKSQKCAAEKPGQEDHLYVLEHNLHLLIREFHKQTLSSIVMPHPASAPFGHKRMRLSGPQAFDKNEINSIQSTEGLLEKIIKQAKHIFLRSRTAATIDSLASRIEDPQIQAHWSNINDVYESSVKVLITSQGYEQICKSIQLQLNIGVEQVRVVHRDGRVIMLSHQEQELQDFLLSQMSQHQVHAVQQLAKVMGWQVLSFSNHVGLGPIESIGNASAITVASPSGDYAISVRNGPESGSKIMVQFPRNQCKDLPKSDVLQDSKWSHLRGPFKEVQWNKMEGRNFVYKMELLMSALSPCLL

B1: MED16 (natural protein, mouse (Mus musculus; endogenous in CH12), UniProt Q6PGF3 1-828, looked up)
chain: MDLAYVCEWEKWAKSTYCPSLPLACAWSCRNLIAFTTDLRNDDQDLTHMIHILDTEHPWEVHSVSSGHSEAITCLEWDQSGSRLLSADADGQIKCWSMADHLANSWESSVGSQVEGDPIVALSWLHNGVKLALHVEKSGASSFGEKFSRVKFSPSLTLFGGKPMEGWIAVTVSGLVTVSLLKPSGQVLTSTESLCRLRGRVALADIAFTGGGNIVVAAADGSSASPVKFYKVCVSVVSEKCRIDTEILPSLFMRCTTDPNRKDRFPAITHLKFLARDMSEQVLLCASSQTSSLVECWSLRKEGLPVNNIFQQISPVVGDKQPMILKWRILSATNDLDRVSAVALPKLPISLTNTDLKVASDTQFYPGLGLALAFQDGSVHMVHRLSLQTMAVFYSSAPRSLDEPALKRPRTTCPAVHFKAMQLSWTSLALVGIDNHGKLSMLRISPSLGHPLEPKLALQHLLFLLEYCMVTGYDWWDILLHVQPGMVQSLVERLHEEYTRQKPALQQVLSTRILAMKASLCKLSPCTVARVCDYHTKLFLMAITSTLKSLLRPHFLNTPDKSPGDRLAEICAKITDVDIDKVMINLKTEEFVLDMNTLQALQQLLQWVGDFVLYLLVSLPNQGSPLRPGHSFLRDGTSLGMLRELMVVIRIWGLLKPSCLPVYTATSDTQDSMSLLFRLLTKLWICCRDEGAASEPDEGLVDECCLLPSQLLVPNLDWLPASDGLVSRLQPKQPLRLRFGRAPTLPSSTSTLQLDGLTRAPGQPKIDHLRRLHLGAYPTEECKACTRCGCVTMLKSPNKTTAVTQWEQRWIKNCLCGGLWRRVPLSCS
notes: MED16, Mus musculus, endogenous lower Tail subunit of Mediator; source: endogenous, CH12 mouse B lymphoma nuclear extract; immunopurified as part of Mediator (FLAG M2 agarose, FLAG peptide elution)
B1: the binding result with MED23 and with MED24 was “binds” in each case.

B2: MED20 (natural protein, mouse (Mus musculus; endogenous in CH12), UniProt Q9R0X0 1-212, looked up)
chain: MGVTCVSQMPVAEGKSLQQTVELLTKKLEMLGAEKQGTFCVDCETYHTAASTLGSQGQAGKLMYVMHNSEYPLSCFALFENGPCLIADTNFDVLMVKLKGFFQSAKASKIETRGTRYQYCDFLVKVGTVTMGPSARGISVEVEYGPCVVASDCWSLLLEFLQSFLGSHAPGAPTVFGNRHDAVYGPADTMIQYMELFNKIRKQQQVPVAGIR
notes: MED20, Mus musculus, endogenous Head module subunit of Mediator; source: endogenous, CH12 mouse B lymphoma nuclear extract; immunopurified as part of Mediator (FLAG M2 agarose, FLAG peptide elution)
Regarding B2, the binding result in the experiment with MED27 and with MED17 was “binds” throughout.

B3: MED22 (natural protein, mouse (Mus musculus; endogenous in CH12), UniProt Q62276 1-200, looked up)
chain: MAQQRALPQSKETLLQSYNKRLKDDIKSIMDNFTEIIKTAKIEDETQVSRATQGEQDNYEMHVRAANIVRAGESLMKLVSDLKQFLILNDFPSVNEAIDQRNQQLRALQEECDRKLITLRDEVSIDLYELEEEYYSSSSSLCEANDLPLCEAYWRLDLDADSADGLSAPLLASPETGAGPLQSAAPVHSHGGGPGPTEHT
notes: MED22, Mus musculus, endogenous Head module subunit of Mediator; source: endogenous, CH12 mouse B lymphoma nuclear extract; immunopurified as part of Mediator (FLAG M2 agarose, FLAG peptide elution)
As to B3, the binding result with MED17 is listed as “binds”.

Source of the values: PMC7921410, “Structure of mammalian Mediator complex reveals Tail module architecture and interaction with a conserved core” (Nature Communications, 2021).
